From the DeepSol protein solubility set come the findings set out here.

The nature of the data set: soluble on expression in E. coli; label from the status in PepcDB or PDB records.
As to “MGSDKIHHHHHHMALSADSRLQFTSDLNICRILNGMWQVSGGHGKINAPAAIKTMFQYVDAGFTTWDLADHYGPAEDFIGEFRRQLVANRGKEALANIQAFTKWVPRPGRMTKKLVEENIDISRRRMDVESLDLMQFHWWDYQDKNYLDALKYMAELQTEGKIKHLALTNFDTEHLQIITEAGIKIVSNQVQFSLVDRRPEVNMVKFCQQHDIKLFTYGTLCGGLLSEKYIGKPEPRGFDLGTTSLRKYKNMVDAWGGWHLFQELLSTLKQIADKHGVSIANVATRYILDKPAVGGVIVGARLGISEHIADNAKVFSFTLDAEDSNVINTISSQSRDLYQLIGDCGDEYRR”, the “soluble on expression in E. coli” value is recorded as “not soluble”.

In the case of “MGSDKIHHHHHHMALWQYSFRGGDDMKFAHLERLNLTLRALAPVFIGSGEQLGKKEYIFDSPNALIYFPDFPRLVAFLKERSLLAEYEKFLSTPRLKDIRVFLEENGISAADYPSFVRYSIAAGEAAHIENFREVLTFIKDSKGYPYIPGSSLKGAIRTALATYLLKRGDWERDRRNIEGSDSSVPARKYLARESSTVEKKVFYQLDIRNPKDGKEISSPINDLMQGIRISDSAALSFENLTLTGKYDRKPDGTVNLLPIFRECLTPGSEAHLQLTLDLPMLARVGLNAGIIEEALHDFADEHYAHFEQYFAELPEDASVAAKEGVDIFLGGGVGYVSKTLTYNLFPQRENAVSLAAKILTKQFSPKHGHSKDASQYKVSPHILKTTMYAGEYYHMGKCELIITR”, the “soluble on expression in E. coli” value was “not soluble”.

On to “MGSDKIHHHHHHMANFIEKITYLGTPAIKAGNEHLEMIVVPEWGSNVISLVDKTTNVQLLREPETAESFHDTPTLYGIPILFPPNRISDGTFSFRGRTYHFDINEKDKHNHLHGFLYHEKWNVVTTKQTDEGVIVETEIDLSELPHVQKQFPHHAVVRMTYTIKENTLFKHATVMNKGKEAFPWGIGYHTTFIFPAESSLFSLTADQQWELDERLLPTGKLMDVPYKEALHEGMDLRHKQLDDVFLSSYQKRGGENQAVIYHQHAHISIIYKADEQFKHWVVYNADGKQGYLCPEPYTWVTNAVNLDLPSSLTGLQVLEPGEETTAKSSITIELNHQ”, for which the “soluble on expression in E. coli” value is “not soluble”. In the case of “MGSDKIHHHHHHMANLNDFTFFVHVVDHGGFAPAARALNLPKSTLSKRVAELEKDLGVRLINRTSRHFAVTESGKDFYRHAAAMMIEAEAAENVVRGRLAEPSGTVRITASVPTAQLSLAPLLPQLALAYPKLRVTLHATDRFVDVIQDGFDLAVRDHFAPLPDSGLVQRRIGFQAKLIVASPLYLQGNGTPERPEDLDHHDGLLTSLASEGWVMERADGSTVSVSPRPRFVADESRVLREAALAGLGITTLPGKLCQQEIESGTLIRILPEWTAGKVMTTILMPHRRGQLPSVRATVDFIAERLVDG”, the “soluble on expression in E. coli” value is “not soluble”. On to “MGSDKIHHHHHHMAQALYANVAVVNSKEHKDLKIKPINHFRYAAKIQSCPISDIEFFPCSLSHPIMFAKAEDGKIVPLALMGLERETNQFVSSEGVWKEGEYMPAFLRRYPFIMVRDPENTRMVVGLDMDAEGVNRDEGRELFDEKSEASEFAKSAMKFLTDFQEAFDRTQNFLAKMSELELFDDAVFNWEFKGVTSSFGGFMRIDEKKLDELDDETLLALTRSGHYKLIVAHLVSLRRFQRLVDWKMRPAS”, for which the “soluble on expression in E. coli” value is on record as “not soluble”. Consider “MGSDKIHHHHHHMAQHEMSPRANSETDTVVLDAPGKSVYESLCEKINLTPVKATRPMESFQSADALSESSLDERVAQAMTVFLKMIQDSSQQVDRLDKSLLDFHIAHLDQQISQQLDAIMHHETFQQIESAWRGLKFLVDRTDFRKNVKIEVLDVSKDALRQDFEDTPELIQSGLYLHTYIQEYDTPGGEPVGSIISNYEFDRSQQDIVLLRNISKVSAAAHMPFIGSVSPKFFGKDSMDEVASIRDIGNYFDRAEYLKWKSFRDSDDARYIGLTLPRFLARLPYGPDTVPVRAFNYTEAVKGPDHSRYLWGNASFAFAVNMVQSFIKNGWCVQIRGPQAGGLVEDLPIHLYDLGTGNQAKIPTEVLIPETREFEFANLGFIPLSYYKNHDFACFFSAHSAQKPALYDTKEATANSRVNARLPYIFLLSRIAHYLKLIQRENIGTTKDRRVLELELNTWIKTLVTEMTDPGDELQASHPLREAKVIVEDIEDNPGFFRVKLFIVPHFQIEGMDINLSLVSQMPKAKTDRLLSASTAI”, for which the “soluble on expression in E. coli” value is recorded as “not soluble”.

As for “MGSDKIHHHHHHMARLAVEPLEALARYQGEPALAAMRREFLPAVTDPVWRGLVEEFLTLDEPLTPYAHQCRRVWSFAASPGSGAHHAHIGGLALHVLQDLRNARALAEAHEARGLALDRGLLFAAIMLHDCLKRFVYDFDDDYALVKAEDPFIARHEDHHSWMLRELVARGVDRTLVLAVAAMHGLDDVSLASGVRPLAVVNHYLEIGLTGLEMQPEDVRAEHSIGFLSDSDWPWSGRAQQRAREVAAALSPRFEVTTGYMNLYLGSRFSFEHIDSLLRTKGHDGTVDHLSTLLEKQG”, the “soluble on expression in E. coli” value is listed as “not soluble”.

For “MGSDKIHHHHHHMASLVDQITDLYVRMAELERRNRNRRRKGTIAEVSDDKSKYRVKLSEQAGKPYLTPWIKARTLAAGGVKVDVLYSVGEQVDVVSENGEMTDAQIDFSTYSDDNARENSDTPFHIKIGDTVIEASAGQAKVTSPKVIVESPNVQLGGDGGKRVARIGDLVHVMSGSSSGKWPIVEGSEHVFAVD”, the “soluble on expression in E. coli” value is on record as “not soluble”. With “MGSDKIHHHHHHMASVYWIPKLRIIPRTKFVTICPITLTLSLSMQYSPNLAHGTLLRRYKRFLADVLLDDGTEITLHCPNTGSMKNCLFPGETVWFSTSNNPKRKYAHTWEQSSTPDKQLIGINTGRANALAEEAINLGVIKELTGYDRLQREVKYGEENSRIDILLSSDTRASCYIEVKSCTLLEEGSTSGRGYFPDSVTVRGQKHLRELIHMVKQGHRAVLLFVVQHSGINSVSPARHIDVAYSELFTQALDAGVEVLAYQTQMSPQESQILTSCPVIT”, the “soluble on expression in E. coli” value is reported as “not soluble”.

“MGSDKIHHHHHHMATLYLIEQGAEIGCDGERIVVRRAGEIIGSVPLVKVDDIVIFGNIGISTPAIKRLLDRSIEVTFMTVDGSYQGRLVGQVTAHVALRQAQYACAADSDRTLRLAQSFVEGKLRNQRALLQRFSRNRATPPAEALAAADDLDAYIKRVRRTTRLSALLGVEGSATARYFAGLRSLIEPEWDFRSRQRRPPPDPVNLLLSFGYTLLTHKTLGAVQAAGFDPYLGFLHSLDYGRPSLALDLMEEFRPLLIDSLVVRVCNDGRLRLEHFQPGDEARPVIITDEGKRAFLTAFEERMRTEATHPEGADSGPGKVTYQRCIALQARRLARVIRGQQERYEPFTAR”: the “soluble on expression in E. coli” value was “not soluble”. Then “MGSDKIHHHHHHMATRSATQPVSPQVARLARGLKLGANSMLVTLFGDVVAPRPQALWLGSLIRLAEPFGINDRLVRTATFRLTSDDWLNATRIGRRSYYGLSEAGLQRCLHAGKRIYAGDAPDWDGRWTLALVRGDARATIRQRLKRELLWEGFGAIAPGVYAHPNADANSLGEIIRAAHAQDFVAVMDATSLETFSIRPLQTLMHQTFKLGDVASAWQALLRRFSPVLADAHAMTPADAFFVRTLLLHEYRRVLLRDPNLPEQLLPTDWPGRTARDLCRDMYAALLDASEDYLREVVEVSEGTLANATRLLRRRFAMA”, with “not soluble”; and “MGSDKIHHHHHHMATTNAASTVRELIREHYSALTQAERKFANALLDNYPAAGLASITIVASNVGVSSPTVARMVKKLGFKGYPEFHKALLSELEAKGVGPTKRRDNWSSEAPQEHLLNRFSQAVTNNLQQTFAHIDTERFDQATRQLADTEKRLYIVGGRITQALADYAFTHFQAVRPGVTHMTSSSGTWPHYVLDMEPGDTLLIFDVRRYETNLLRLTEIVKKRGAQIVLFTDQWGSPISTLADLTFHCRVEIPSGWDSNVATMMLLETMIASVQEQRWPDARDRYERLDELFDKTHFFRKFT”, with “not soluble”. Regarding “MGSDKIHHHHHHMATVTTSEGSAERREADSGALARGLNILSRLHEAARPLSLQDIAESVGLPTTTCHRLLQSLDVAGYVYREGSLYCPTPRAACPLPLEHPLNRLRRDTAPLMRELQERHGPSVLLIAFLGDHRVTVECVAGNYSVTPYFDTTVTAPLHASVSGKILLSDRTDEQRDALLGQAPYSARTEWTIRDRAALYAELEEVRKRGWATNQNENVIGICAVGSRLAAPSGRALGAIVLTGPSRFFAKGFDTMRDDLLQACQMLNSTSHAIRTMTQLLGV”, the “soluble on expression in E. coli” value is “not soluble”. “MGSDKIHHHHHHMAVRMLDIARRFNMLSERIRRESVELGIPAIDPEDGLILSSAAFYVGGGTGSYVDAGAGIGYSTIWIAYGAYHRCTDITCKIVAIEYDVELASILSRNLREVEAMFRGRIEFEVVSGDALDYFSRLEEKGREVFDMAFVDIEKGDYPEALERLENLLTAGGVAAFYNAFQPPPPPLFFDMVSKRPWKPVVLPTPAGLLLAVKTAG”: the “soluble on expression in E. coli” value is recorded as “not soluble”. For the sequence “MGSDKIHHHHHHMAYLEVLRYLYHKRPMGKVKPGLERISMLLSKLGNPHLEYKTIHIGGTNGKGSVANMVSNILVSQGYRVGSYYSPHLSTFRERIRLNEEYISEEDVVKIYETMEPILNELDKEEIFSPSFFEVVTAMAFLYFAEKNVDIAVLEVGLGGRLDATNVVFPLCSTIVTVDRDHEKTLGYTIEQIAWEKSGIIKERVPLVTGERKREALKVMEDVARKKSSRMYVIDKDFSVKVKSLKLHENRFDYCGENTFEDLVLTMNGPHQIENAGVALKTLEATGLPLSEKAIREGLKNAKNLGRFEILEKNGKMYILDGAHNPHGAESLVRSLKLYFNGEPLSLVIGILDDKNREDILRKYTGIFERVIVTRVPSPRMKDMNSLVDMAKKFFKNVEVIEDPLEAIESTERATVVTGSLFLVGYVREFLTTGKINEEWKL”, the “soluble on expression in E. coli” value is listed as “soluble”. As to “MGSDKIHHHHHHMCMTSPDQLTASESADTASAHKRVLVAAPRGYCAGVDRAVETVEKALEKYGAPVYVRKEIVHNRYVVDTLAERGAIFVDETTEAPEGAHLVFSAHGVSPAVHKEAEALSLKTLDATCPLVTKVHNEVKRFARDGYHILLVGHEGHEEVEGTAGEAPDVTHLVDGVESVDKLPEFLHDEKLIWLSQTTLSVDETMTIVKKLHERFAHLQDPPSDDICYATQNRQVAVKAIAAESDVVIVVGSQNSSNSKRLVEVALQAGAGASYLVDYAHQIDESWLDGATTVGVSSGASVPEILVRGVLEFLDARGFHDVKEITTAAEKITFALPRDLRPART”, the “soluble on expression in E. coli” value is on record as “not soluble”. For “MGSDKIHHHHHHMCSPTNFLYEPFSSDAVTQNYDQNLKCTKCGAYYSMACSLREQNVWTCLFCNQSNSNAELPLVPSNTYTLTSAKKEILSRRTIMIIDAICDPHELNYLVSILCNNYITRQQEPLSIITIQQSGHVILHNAVNHRRDAVFSINEFMTKYNLDKLNASYFEKKISEINQESYWFDKSTQGSLRKLLREICKIANKVNISSKRDKRCTGLALFVSSVLASQCSLSAYCHIVSFLNGPCTKGGGKVMSRERGESMRQNHHFESKSSQLQLSKSPTKFYKKMLEKFANQSLIYEFFIASLDQIGILEMSPLITSSMAVSQFDSFNDERFAMSFQKYLNLRDHNAIYNCHSKIMTAKNAIVVKDFPKYSLNPKNLSLPLEISLGHNSAEAPIQFQTTFENQTEKYIRIETLLLPKANRSFGAQNEIVFSMKKIASRIIDSFAYSSKHTKELMKQLFLLPNQIRGKDVDMVNLIQWCYHIYRSPILSVRNTSPDERYLFLHRIINASKDTCLSLCKPFIWSYSDLKHDWIVLDVPLTRAQILQDDKTTICVDGGSYLVLRRGKLLEKEGRELCCKLLNDLQRFPQPLYVETKTGGSQDRFLKSKIIPLDITDKETLGTEDMTFNEYFNLFTDLSGSK”, the “soluble on expression in E. coli” value was “not soluble”.
